Tests used:
[1] = target: T1, RhoA complexed with Rho GDI (Bos taurus, UniProt P19803); assay: In vitro nucleotide exchange assay; assay type: biochemical; details: high Mg2+; 50 nM complex, 90 nM GST-Dbl
T1 construct: GST (N, cleaved yes); made in house; host or cells: yeast (RhoA, from membranes); E. coli (Rho GDI, pGEX)
T1 sequence (P19803 1-204): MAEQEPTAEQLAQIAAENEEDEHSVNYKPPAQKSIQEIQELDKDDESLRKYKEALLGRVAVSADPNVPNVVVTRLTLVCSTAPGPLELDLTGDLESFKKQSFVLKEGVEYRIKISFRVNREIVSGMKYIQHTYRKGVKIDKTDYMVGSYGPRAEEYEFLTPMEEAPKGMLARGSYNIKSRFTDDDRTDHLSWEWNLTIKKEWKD
Procedure: Lipid-modified RhoA was purified from yeast membranes as described (Forget, M. A., Desrosiers, R. R., Gingras, D. & Beliveau, R., Biochem. J. 361, 243-54(2002)). [^3H]GDP- or GDP-RhoA complexed with Rho GDI was obtained by first incubating GDP-RhoA with or without [^3H]GDP, followed by incubation with Rho GDI for 30 min, as described previously (Takahashi, K. et al., J. Biol. Chem. 272, 23371-23375 (1997)). The sample, subjected to gel filtration, was equilibrated with 20 mM Tris-HCl (pH 7.5) containing 5 mM MgCl2, 1 mM dithiothreitol and 0.1% CHAPS. The GDP dissociation and GTP binding assays were carried out by the filter binding method as described previously (Hart, M. J., Eva, A., Evans, T., Aaronson, S. A. & Cerione, R. A., Nature 354, 311-314 (1991)). In the [^3H]GDP dissociation assay, 50 nM of the complex was incubated for 20 min with various concentrations of GST-fused proteins in a reaction mixture (50 μl) containing 30 mM Tris-HCl (pH 7.5), 5 mM or 0.5 μM MgCl2, 1 (for low Mg) or 10 (for high Mg) mM EDTA, 0.1 mM GTP, 1 mM dithiothreitol, 0.12% CHAPS and 0.2mg/ml bovine serum albumin. In the [^35S] GTPγS binding assay, the complex was incubated as described above except that 1 μM [^35S] GTPγS was used instead of 0.1 mM GTP. At the indicated time, an aliquot of the reaction sample was removed, and passed through nitrocellulose filters (IPVH 000, Millipore). […]

male Wistar rats = assay: Spinal cord injury (dorsal half dissected, ninth thoracic vertebra), agent pumped to the injured site; assay type: in vivo, rat; details: species not stated
Procedure: 200 g male Wistar rats were used. After the ninth thoracic vertebrae laminectomy was performed, the dorsal half of the spinal cord was dissected. A continuous osmotic pump was used to continuously administer either TAT(PTD domain)-fused Pep5 (TAT-[…]) (SEQ ID NO. 2) or TAT(PTD domain)-fused control peptide (TAT-[…]) (SEQ ID NO. 15) to the injured site for 6 weeks ([…]). In this case, the tip of a tube connected to the pump was left in the medullary space. After spinal cord injury, the functional recovery was assessed using the BBB score. The animals were observed on day 7, 14, 21, 28, 35, and 42 after injury. These experiments were carried out using techniques described in Fournier A. E., Takizawa, B. T., Strittmatter, S. M., J. Neurosci. 2003, 23, 1416-1423.
200 g male Wistar rats were used. After the ninth thoracic vertebrae laminectomy was performed, the dorsal half of the spinal cord was dissected. A continuous osmotic pump was used to continuously administer either TAT-fused Pep5 or TAT (PTD domain)-fused control peptide to the injured site.

B1: p75 ICD: GST-fused intracellular domain (ICD) of p75 (protein)
chain: KRWNSCKQNKQGANSRPVNQTPPPEGEKLHSDSGISVDSQSLHDQQTHTQTASGQALKGDGNLYSSLPLTKREEVEKLLNGDTWRHLAGELGYQPEHIDSFTHEACPVRALLASWGAQDSATLDALLAALRRIQRADIVESLCSESTATSPV
modifications: left off: a dimerising Fc or GST
For B1, the “Dbl stimulated dissociation of GDP from GDP-RhoA complexed with Rho GDI” value [1] was “showed the inhibitory effect to the same extent as p75 HD”.

B2: p75 in which alanine was replaced with valine at amino acid 423: p75 positions 273-427 of SEQ ID NO. 4 with alanine replaced with valine at amino acid 423 (protein)
chain: KRWNSCKQNKQGANSRPVNQTPPPEGEKLHSDSGISVDSQSLHDQQPHTQTASGQALKGDGGLYSSLPPAKREEVEKLLNGSAGDTWRHLAGELGYQPEHIDSFTHEACPVRALLASWATQDSATLDALLAALRRIQRADLVESLCSESTVTSPV
modifications: Homo sapien
In the case of B2, the “nerve regeneration, similar experiments with modified amino acids (Example 2-8)” value (male Wistar rats) is reported as “nerve regeneration was similarly observed”.

— patent US20040191240A1, “Composition and method for nerve regeneration” (priority 2003, published 2004)
